Source: article PMC2880403 (Journal of molecular biology, 2010)

Biological target: T1, DsbA C33S (Escherichia coli, UniProt P0AEG4 20-208, C33S)
T1 sequence (looked up): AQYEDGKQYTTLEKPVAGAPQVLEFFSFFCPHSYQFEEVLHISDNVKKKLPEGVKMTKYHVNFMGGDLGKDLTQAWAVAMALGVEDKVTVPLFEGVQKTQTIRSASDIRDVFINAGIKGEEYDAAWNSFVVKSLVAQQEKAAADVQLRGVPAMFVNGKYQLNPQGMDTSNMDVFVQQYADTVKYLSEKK
Assay: absorbance titration at 500 nm

- binding result: binds
B1: His-tagged "wildtype" DsbB containing mutations of nonessential cysteines (C8A, C49V) (enzyme, Escherichia coli, UniProt P0A6M2 1-176, looked up)
chain: MLRFLNQASQGRGAWLLMAFTALALELTALWFQHVMLLKPCVLCIYERVALFGVLGAALIGAIAPKTPLRYVAMVIWLYSAFRGVQLTYEHTMLQLYPSPFATCDFMVRFPEWLPLDKWVPQVFVASGDCAERQWDFLGLEMPQWLLGIFIAYLIVAVLVVISQPFKAKKRDLFGR
